Residue numbers refer to the chain shown, from its start. Numbers in names are those of the source. Values belong to the binder of their own block, whether it stands above or below them.
Target: DENND10 (recombinant, pull-down) (human, UniProt Q8TCE6 1-357)
Experiment: pull-down

Sequence of DENND10 (recombinant, pull-down) (Q8TCE6 whole entry): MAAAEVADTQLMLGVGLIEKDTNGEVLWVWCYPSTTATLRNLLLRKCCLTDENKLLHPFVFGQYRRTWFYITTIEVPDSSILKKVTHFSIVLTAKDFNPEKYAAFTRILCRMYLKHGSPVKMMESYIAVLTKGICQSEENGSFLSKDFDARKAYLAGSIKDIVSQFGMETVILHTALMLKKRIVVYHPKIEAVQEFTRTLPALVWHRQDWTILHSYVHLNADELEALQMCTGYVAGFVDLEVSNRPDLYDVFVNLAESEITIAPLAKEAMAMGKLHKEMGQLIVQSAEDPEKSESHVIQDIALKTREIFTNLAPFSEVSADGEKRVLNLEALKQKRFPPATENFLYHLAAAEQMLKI

binding result: binds
B1: MBP-tagged CCDC22-CCDC93 DBD (complex, human)
chain 1: GAGAKTGAPKGSRFTHSEKFTFHLEPQAQATQVSDVPATSRRPEQVTWAAQEQELESLREQLEGVNRSIEEVEADMKTLGVSFVQAESECRHSKLSTAEREQALRLKSRAVELLPDGTANLAKLQLVVENSAQRVIHLAGQWEKHRVPLLAEYRHLRKLQDCRELES
chain 2: SPEKLGTSQLHRRKVISLNKQIAQKTKHLEELRASHTSLQARYNEAKKTLTELKTYSEKLDKEQAALEKIESKADPSILQNLRALVAMNENLKSQEQEFKAHCREEMTRLQQEIENLKAERAPRGDEKT

binding result: binds
B2: MBP-tagged CCDC22-CCDC93 DBD, CCDC93 E410R (complex, human)
chain 1: B1 chain 1
chain 2: B1 chain 2 with E106R

Reference: paper PMC11260360 (Nature structural & molecular biology, 2023)
